Earlier results on one substance are cited in paper PMC3937638.

The target in this data set is His45 (UniProt position 80, RKIGFHVCAAG). The following applies: HA8(AN)-bound Link_TSG6.

As for “TSG-6 Link module (Link_TSG6; tumor necrosis factor-stimulated gene-6 protein, hyaluronan-binding domain) (Homo sapiens)”, the pKa is 5.7.

In general, pKa refers to the pH at which an ionisable group is half protonated.
